Measured values: the domain aggregation screens of Martell et al. (2025)

Assay: soluble fraction after stress (log2 fold change); higher = more stays soluble; pooled small domains, quantitative proteomics
Details: stress: 75 degC
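Note: 20 min heating vs room temperature control held 20 min.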

**Q.** For “HMTERIRLHDDIGSWVEKHGATRSALIPVLQGIQRSYNEISEYAMQEVADRLDIHPVEVYSVVSFYSF”, which “soluble fraction (log2)” value is on record?
**A.** 0.307

**Q.** For “HMTESFEFTMNDLVQNNLIMGSGAKERRIAVGEALGIGYTNAKQFLSRLNHYGITRKEFDDEIEKVNQN”, which “soluble fraction (log2)” value is on record?
**A.** -0.311

**Q.** For “HMTETEIVIGGKYRHYKGGEYELVSIVKHSETLEELVIYKSLSTGEMWARPKSLFVGLVDGQPRYTL”, which “soluble fraction (log2)” value is on record?
**A.** -2.22

**Q.** With “HMTETIPVSERLFRYLFEEKGKRVQKIQQTSHARVRMERSPYSVVVSGTKDAVEAAMESLKATEKELLEA” as the sequence, how does the “soluble fraction (log2)” value read?
**A.** -0.161

**Q.** Which “soluble fraction (log2)” value does the source give for “HMTETPDDLLAALKKNKKAQATFDAFSPSNKKEYILWITEAKTEATRTKRLETAIEWMSEGKARNW” here?
**A.** -0.579

**Q.** With “HMTETTTVPKLKGLTKDEAEDAAKSSKIKLEFIDEISKTVEAGVIIKQEKDEGETVNAGDTVKVYVSIGT” as the sequence, how does the “soluble fraction (log2)” value read?
**A.** 0.472

**Q.** Which “soluble fraction (log2)” value does the source give for “HMTEWSIHEVAQRSGVTTRTLRHYDAIGILSPTRTGANGYRYYGPEALVRLQRILLLRDLGLALSDIAE” here?
**A.** -3.82

**Q.** With “HMTEYFTIESQEGERIDRYLSEELEDKSRSYIQKLIRDGHVLVDGKTVKAGYRLVAGDNIAITLPEI” as the sequence, how does the “soluble fraction (log2)” value read?
**A.** -0.132

**Q.** For “HMTFAPTAIPSLTRPMEELMSWSFTPNEAFILSRINGLWDVRSIAKISPFPEGEVLRVFEKLHDGGLIRW”, which “soluble fraction (log2)” value is on record?
**A.** -3.6

**Q.** For “HMTFNEPSPKEIMDYSLSRGYKVDADAFIDFYRGKAKAYGKEGLWLDGRGRLVKDWRAKLRVVWFKDENKL”, which “soluble fraction (log2)” value is on record?
**A.** -1.36

**Q.** For “HMTGDIGAEAAKAAALAHAGVTESQTAKMKVDRDWDDGRLEYDVEFDVGRTEYEYTIDGVTGAVLEYEQDI”, which “soluble fraction (log2)” value is on record?
**A.** 0.0252

**Q.** With “HMTGDIIKQERKKKNLTQIELAKKVGISRNALINYEAGTRIPPISVQLKLADVLGIDILDLK” as the sequence, how does the “soluble fraction (log2)” value read?
**A.** -1.64

**Q.** With “HMTGDISRALDQLPADMRTVLILYALEKQRYEDIAQITGVSVGTVKSRLNRARQKLAAILANQREQNE” as the sequence, how does the “soluble fraction (log2)” value read?
**A.** -1.49

**Q.** With “HMTGDNQTIGGGGFHHVAIRAHDFDASVKFYGETLGFREKIAWGEGDKRAIMMDTGDGNYIEIF” as the sequence, how does the “soluble fraction (log2)” value read?
**A.** 0.0318

**Q.** Which “soluble fraction (log2)” value does the source give for “HMTGEDIKKVILREYAREKSLLSIFHELSKVNSNVTLEVIKDIITNIDKLPNDLLQYFKEESSFYQKNKN” here?
**A.** -1.46

**Q.** For “HMTGGIWVQIQGAVERPGVYSLPRDSRLKDLLEAAGGFGRDADTEKVNQAARLEDGAMYRVPRQGEG”, which “soluble fraction (log2)” value is on record?
**A.** 0.49

**Q.** For “HMTGGLLVHVAGAVGAPGVVSLPEGARVVDAIEAAGGAREDADTDQLNLARPVVDGEQVRVPVVGEVLE”, which “soluble fraction (log2)” value is on record?
**A.** -0.00946

**Q.** Which “soluble fraction (log2)” value does the source give for “HMTGINMSYEEYKAMADIIVPLIKAGHSPYHIVTNHPELNISEKTLYNYIENGIFREFGLLDINL” here?
**A.** -1.59

**Q.** With “HMTGIRVYPNPTSSELRFSVATDAALYDATGARLRVVRGSDMMDIRDLASGTYYVRFADGSTQSVVVT” as the sequence, how does the “soluble fraction (log2)” value read?
**A.** -0.755

**Q.** With “HMTGKLGKIILQPKQTVYGITKKYQISESELRRLNPQLDSHLKIGDEVILPAENIKKFGGNQPVAVS” as the sequence, how does the “soluble fraction (log2)” value read?
**A.** 0.268

**Q.** For “HMTGKTTLEYLNPLLERGIPVWDYLAKASGKAKEEVQEMVSKGLVPGAEAAKAIADYMGAEFAGSMA”, which “soluble fraction (log2)” value is on record?
**A.** -0.0343

**Q.** Which “soluble fraction (log2)” value does the source give for “HMTGKVKWYDADKGFGFVTEDGGRDVYVRKSALPQGVETLKAGQRLEFGIAEGRRGPQALSVR” here?
**A.** -0.0771

**Q.** For “HMTGLFSPTEQTRHSKTGATLYSVKLAERIERNAFQSLKKRAKEHDGYYSSFTRSFLFDTPEDAEAFRGT”, which “soluble fraction (log2)” value is on record?
**A.** -0.371

**Q.** For “HMTGMEASLSKLLQGEQFADLRKALIDKGIRKLEAFKRLNLWVFMNRNRLYSIGQRQTVYSTLQRALASE”, which “soluble fraction (log2)” value is on record?
**A.** -0.0934

**Q.** With “HMTGREIDQLFSVVNDLKAKGVGMVFISHHLDEIARIADSVSVLRDGGFVAEVPASTPEKKLVTLMVGRDI” as the sequence, how does the “soluble fraction (log2)” value read?
**A.** -0.228

**Q.** Which “soluble fraction (log2)” value does the source give for “HMTGWINVDKNWYYMNNSGSMARGMINVNNVSYYLDENGKMLSNTTVNVNGTDYRIDASGAMSQI” here?
**A.** -0.182

**Q.** Which “soluble fraction (log2)” value does the source give for “HMTHEIKIKSHSLFASEGTKYQWYLNNIKINDATSQELEITSPGIYKLEMTNFDGDVIEKQIIVGLTNS” here?
**A.** -1.91

**Q.** With “HMTHHGHSIKRIRDMLGIKQETLAAELNMTQQAFSKLEQKEQIEDEMLDKIAKILHVSTEALKT” as the sequence, how does the “soluble fraction (log2)” value read?
**A.** 0.0102

**Q.** Which “soluble fraction (log2)” value does the source give for “HMTHPAHLARIGALIRSARQHEGLTQAQLAELLGTSQSAIHRIEQGGQNITLDMLTRISAALDSEIVTIG” here?
**A.** -1.51

**Q.** For “HMTHPQVEAYLDDLARMLADIDPGERDDILASVREHLDAEIAAGHGSDAVVNATLLRLGPPEQVAAAARTN”, which “soluble fraction (log2)” value is on record?
**A.** -0.0131

**Q.** For “HMTIAFPSNDVDAVVGYFESRGFDRTASISTATVILQQAKIDGVKVFELIDTLQGMDKVQLSYIVTEILN”, which “soluble fraction (log2)” value is on record?
**A.** 0.0608

**Q.** For “HMTIATLGERIRKLRKERGLTLAELAGDKLSKGMLSLIENNRAKPSMESLEYIAKRLGVEPAELLE”, which “soluble fraction (log2)” value is on record?
**A.** 0.0696

**Q.** Which “soluble fraction (log2)” value does the source give for “HMTIENTDTFLETLWEQVQRASVDENGIITSRVLIWDEGTKLDEILSWFDKRHSLGALYLQFG” here?
**A.** -2.66

**Q.** Which “soluble fraction (log2)” value does the source give for “HMTIFGWQTDETGKWYRNADGTFFEAGWKEIDGAKYYFDENGYVKTGWLELDGKDYYFDEEGRYDSSKVR” here?
**A.** 0.299

**Q.** Which “soluble fraction (log2)” value does the source give for “HMTIGLLISKARTNSGLTQAELATRAGTSQAAIARYESDRVSPSVSTLERVLRAAGEELVISSS” here?
**A.** -0.209

**Q.** Which “soluble fraction (log2)” value does the source give for “HMTINPFSTLAVRELEILHYLLNGHRTKEIATNLGLKMNTVSTIKSNIFEKVKADSFTHLLQLAHVHQIS” here?
**A.** -1.07

**Q.** With “HMTIQNSILDEIPNIGASRKRAILEAFGSVHRLRKASPEMISAKVEGIGPEMAQAIHDYLVKHPAT” as the sequence, how does the “soluble fraction (log2)” value read?
**A.** 0.066

**Q.** Which “soluble fraction (log2)” value does the source give for “HMTISAQAITPRLEVIKNFVLMEEWDAAQTQLEKLRSFTEIWSLDPLFSAMKKKDGQKISDWITGFIKDNM” here?
**A.** -2.39

**Q.** With “HMTISDEAMQAGRDAFIQALVAMGAEKNADAMASIEKALSADPGNKEYLATRDLIKKSMGMKK” as the sequence, how does the “soluble fraction (log2)” value read?
**A.** 0.981

**Q.** With “HMTISGSDLKAQREALNIPLERIAKETRIRLSILQDLEDEEYSELSSSAQTKGFLRLYADYLSSHKQRLG” as the sequence, how does the “soluble fraction (log2)” value read?
**A.** -1.06

**Q.** For “HMTITDDETHKVLEEGASRMSEGLTFRDLVDLDRLHLTARGVIQKVLNENRIDADVDTIANMAQKLVARVS”, which “soluble fraction (log2)” value is on record?
**A.** -0.0881

**Q.** Which “soluble fraction (log2)” value does the source give for “HMTKAEVLLDLQQRIISEEFLPGSWLVERDLSSEYGLSRTPIREILNKLVILGLISVQKNRGYQVR” here?
**A.** -1.29

**Q.** With “HMTKAILTANDVRNGDIVFWTADQRWSTSIDDAAIGYGKDDTDQLADAGKQAEAANTVVGAYLIALR” as the sequence, how does the “soluble fraction (log2)” value read?
**A.** -0.102

**Q.** For “HMTKASEELYFRLKEELGTGVIVEHKKYGEGVVTQLDDRLVHIMFQDDTLRMMDLKILANAGLLKVK”, which “soluble fraction (log2)” value is on record?
**A.** -1.57

**Q.** Which “soluble fraction (log2)” value does the source give for “HMTKDYVVIYEGLAQTEAVEILGKLQEMGVSAKVDHNDSILVLKDEEDQIRMALATEGYPKS” here?
**A.** 0.158

**Q.** For “HMTKEEKEKREKYEKLMKKADELVTAKNHKEAVTVLGQAKAYANPQQTKEIEEKIKAQTAELDKG”, which “soluble fraction (log2)” value is on record?
**A.** 0.548

**Q.** For “HMTKGVQMFAEQLKRTRQSRHYSQAEIASKLGVTQQAIAKWETGVSTPSPTSISKLSDILGISTDVLLKGA”, which “soluble fraction (log2)” value is on record?
**A.** 0.0396

**Q.** Which “soluble fraction (log2)” value does the source give for “HMTKIAFPQMLNKYRLQKNLTMEQLAEEVGKTKSTISKWEAGTRSPKIYEIEEIAKYFGVEPQTMMF” here?
**A.** -0.107

**Q.** With “HMTKINAPMPGNILDVKVNVGDHVEANQLVLMLEAMKMENEIFTPVAGTVVGVHVKKGDSVNSDDLLISI” as the sequence, how does the “soluble fraction (log2)” value read?
**A.** -0.512

**Q.** With “HMTKKEFLDILTESLAGNVPASEIEENIRYYKDYIENGEESEEKALEQLGDPHLIARTIIDSFIA” as the sequence, how does the “soluble fraction (log2)” value read?
**A.** -0.0899

**Q.** Which “soluble fraction (log2)” value does the source give for “HMTKLLSALQADKFAKKLANDTNFGSNFARMGESAMDFTNRLVEELQRDEGKVANYMPYLTKLGF” here?
**A.** 0.204

**Q.** With “HMTKLSPKEKSILHIIGDNAGIKSGQIAKRLDIPSPTVKRILSDLVSQNLIEKFGTGPGTNYSI” as the sequence, how does the “soluble fraction (log2)” value read?
**A.** -0.0131

**Q.** Which “soluble fraction (log2)” value does the source give for “HMTKLTTDERSVYLHIQNKPGVSASSIREALGYKKSKLTSILAQLLEVHKIIDTEGTGKSLKYIL” here?
**A.** 0.0994

**Q.** Which “soluble fraction (log2)” value does the source give for “HMTKMTPNRQLVLSVLQSSGKPLSAYELLDRLREQGTQWQPPTAYRALDYLVEQGLAHYLQSIQKYV” here?
**A.** -1.73

**Q.** With “HMTKNEFLASFQNELQKRHIPDWEDVVSEYEQHFALKQADGFSEEEIAAKLGAPAELAAQFEA” as the sequence, how does the “soluble fraction (log2)” value read?
**A.** 0.155
